# Test results reported in the supplement of paper PMC11908140.
# B1: library; numbered along this chain (parent)
# chain: MRKPRAAVGSGHRKQAASQEGRQKHAKNNSQAKPSACDGLARQPEEVVLQASVSSYHLFRDVAEVTAFRGSLLSWYDQEKRDLPWRRRAEDEMDLDRRAYAVWVSEVMLQQTQVATVINYYTGWMQKWPTLQDLASASLEEVNQLWAGLGYYSRGRRLQEGARKVVEELGGHMPRTAETLQQLLPGVGRYTAGAIASIAFGQATGVVDGNVARVLCRVRAIGADPSSTLVSQQLWGLAQQLVDPARPGDFNQAAMELGATVCTPQRPLCSQCPVESLCRARQRVEQEQLLASGSLSGSPDVEECAPNTGQCHLCLPPSEPWDQTLGVVNFPRKASRKPPREESSATCVLEQPGALGAQILLVQRPNSGLLAGLWEFPSVTWEPSEQLQRKALLQELQRWAGPLPATHLRHLGEVVHTFSHIKLTYQVYGLALEGQTPVTTVPPGARWLTQEEFHTAAVSTAMKKVFRVYQGQQPGTCMGSKRSQVSSPCSRKKPRMGQQVLDNFFRSHISTDAHSLNSAAQ
# Variants of: B1
# Assay: 8OG:A repair function score (normalized; synonymous = 0, nonsense = -1) (normalized log-likelihood score); higher = more repair activity (WT-like)
# Conditions: with 8OG:A DNA repair reporter (GFP) in HEK-293 MUTYH KO cells
# In short: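 Per-tile Rosace fitness scores were converted to a normalized repair function score anchored on synonymous and nonsense distributions. That scale puts synonymous medians at 0 and nonsense medians at -1. Variants with starting counts under 300 counts per million were discarded. Input came from sorting viable mCherry+ MUTYH knockout HEK-293 cells, carrying lentiviral MUTYH cDNA NNN codon-scan libraries in 10 pg/ml doxycycline and an 8OG:A GFP repair reporter, into GFP+ and GFP− bins at 72 h, three replicates per tile, followed by tile amplicon sequencing.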
# 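Further: cells sorted at 72 h after reporter transfection.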
row,Variant,8OG:A repair function score
1,MRKPRAAVGSGHRKQAASQEGRQKHAKNNSQAKPSACDGLARQPEEVVLQASVSSYHLFRDVAEVTAFRGSLLSWYDQEKRDLPWRRRAEDEMDLDRRAYAVWVSEVMLQQTQVATVINYYTGWMQKWPTLQDLASASLEEVNQLWAGLGYYSRGRRLQEGARKVVEELGGHMPRTAETLQQLLPGVGRYTAGAIASIAFGQATGVVDGNVARVLCRVRAIGADPSSTLVSQQLWGLAQQLVDPARPGDFNQAAMELGATVCTPQRPLCSQCPVESLCRARQRVEQEQLLASGSLSGSPDVEECAPNTGQCHLCLPPSEPWDQTLGVVNFPRKASRKPPREESSATCVLEQPGALGAQILLVQRPNSGLLAGLWEFPSVTWSPSEQLQRKALLQELQRWAGPLPATHLRHLGEVVHTFSHIKLTYQVYGLALEGQTPVTTVPPGARWLTQEEFHTAAVSTAMKKVFRVYQGQQPGTCMGSKRSQVSSPCSRKKPRMGQQVLDNFFRSHISTDAHSLNSAAQ [E382S],0.000352
2,MRKPRAAVGSGHRKQAASQEGRQKHAKNNSQAKPSACDGLARQPEEVVLQASVSSYHLFRDVAEVTAFRGSLLSWYDQEKRDLPWRRRAEDEMDLDRRAYAVWVSEVMLQQTQVATVINYYTGWMQKWPTLQDLASASLEEVNQLWAGLGYYSRGRRLQEGARKVVEELGGHMPRTAETLQQLLPGVGRYTAGAIASIAFGQATGVVDGNVARVLCRVRAIGADPSSTLVSQQLWGLAQQLVDPARPGDFNQAAMELGATVCTPQCPLCSQCPVESLCRARQRVEQEQLLASGSLSGSPDVEECAPNTGQCHLCLPPSEPWDQTLGVVNFPRKASRKPPREESSATCVLEQPGALGAQILLVQRPNSGLLAGLWEFPSVTWEPSEQLQRKALLQELQRWAGPLPATHLRHLGEVVHTFSHIKLTYQVYGLALEGQTPVTTVPPGARWLTQEEFHTAAVSTAMKKVFRVYQGQQPGTCMGSKRSQVSSPCSRKKPRMGQQVLDNFFRSHISTDAHSLNSAAQ [R266C],-0.085
3,MRKPRAAVGSGHRKQAASQEGRQKHAKNNSQAKPSACDGLARQPEEVVLQASVSSYHLFRDVAEVTAFRGSLLSWYDQEKRDLPWRRRAEDEMDLDRRAYAVWVSEVMLQQTQVATVINYYTGWMQKWPTLQDLASASLEEVNQLWAGLGYYSRGRRLQEGARKVVEELGGHMPRTAETLQQLLPGVGRYTAGAIASIAFGQATGVVDGNVARVLCRVRAIGADPSSTLVSQQLWGLAQQLVDPARPGDFNQAAMELGATVCTPQRPLCSQCPVESLCRARQRVEQEQLLASGSLSGSPDVEECAPNTGQCHLCLPPSEPWDQTLGVVNFPRKASRKPPREESSATCVLEQPGALGAQILLVQRPNSGLLAGLWEFPSVTWEPSEQLQRKALLQELQRWAGPLPATHLRHLGEVVHTFSHIKLTYQVYGLALEGQTPVTTVPPGARWLTQEEFHTAAVSTAMKKVFRVYQGQQPGTCMGSKRSQVSSPCSRKKPRRGQQVLDNFFRSHISTDAHSLNSAAQ [M496R],0.0258
4,MRKPRAAVGSGHRKQAASQEGRQKHAKNNSQAKPSACDGLARQPEEVVLQASVSSYHLFRDVAEVTAFRGSLLSWYDQEKRDLPWRRRAEDEMDLDRRAYAVWVSEVMLQQTQVATVINYYTGWMQKWPTLQDLASASLEEVNQLWAGLGYYSRGRRLQEGARKVVEELGGHMPRTAETLQQLLPGVGRYTAGAIASIAFGQATGVVDGNVARVLCRVRAIGADPSSTLVSQQLWGLAQQLYDPARPGDFNQAAMELGATVCTPQRPLCSQCPVESLCRARQRVEQEQLLASGSLSGSPDVEECAPNTGQCHLCLPPSEPWDQTLGVVNFPRKASRKPPREESSATCVLEQPGALGAQILLVQRPNSGLLAGLWEFPSVTWEPSEQLQRKALLQELQRWAGPLPATHLRHLGEVVHTFSHIKLTYQVYGLALEGQTPVTTVPPGARWLTQEEFHTAAVSTAMKKVFRVYQGQQPGTCMGSKRSQVSSPCSRKKPRMGQQVLDNFFRSHISTDAHSLNSAAQ [V242Y],-0.964
5,MRKPRAAVGSGHRKQAASQEGRQKHAKNNSQAKPSACDGLARQPEEVVLQASVSSYHLFRDVAEVTAFRGSLLSWYDQEKRDLPWRRRAEDEMDLDRRAYAVWVSEVMLQQTQVATVINYYTGWMQKWPTLQDLASASLEEVNQLWAGLGYYSRGRRLQEGARKVVEELGGHMPRTAETLQQLLPGVGRYTAGAIASIAFGQATGVVDGNVARVLCRVIAIGADPSSTLVSQQLWGLAQQLVDPARPGDFNQAAMELGATVCTPQRPLCSQCPVESLCRARQRVEQEQLLASGSLSGSPDVEECAPNTGQCHLCLPPSEPWDQTLGVVNFPRKASRKPPREESSATCVLEQPGALGAQILLVQRPNSGLLAGLWEFPSVTWEPSEQLQRKALLQELQRWAGPLPATHLRHLGEVVHTFSHIKLTYQVYGLALEGQTPVTTVPPGARWLTQEEFHTAAVSTAMKKVFRVYQGQQPGTCMGSKRSQVSSPCSRKKPRMGQQVLDNFFRSHISTDAHSLNSAAQ [R219I],-0.887
6,MRKPRAAVGSGHRKQAASQEGRQKHAKNNSQAKPSACDGLARQPEEVVLQASVSSYHLFRDVAEVTAFRGSLLSWYDQEKRDLPWRRRAEDEMDLDRRAYAVWVSEVMLQQTQVATVINYYTGWMQKWPTLQDLASASLEEVNQLWAGLGYYSRGRRLQEGARKVVEELGGHMPRTAETLQQLLPGVGRYTAGAIASIAFGQATGVVDGNVARVLCRVRAIGADPSSTLVSQQLWGLAQQLVDPARPGDFNQAAMELGATVCTPQRPLCSQCPVESLCRARQRVEQEQLLASGSLSGSPDVEECAPNTGQCHLCLPPSEPWDQTLGVVNFPRKASRKPPREESSATCVLEQPGALGAQILLVQRPNSGLLAGLWEFPSVTWEPSEQLQRKALLQELQRWAGPLPATHLRHLGEVVHTFSHIKLTYQVYGLALEGQTPVTTVPPGARWLTQEEFHTAAVSTAMKKVFRVYQGQQPGTCMGSSRSQVSSPCSRKKPRMGQQVLDNFFRSHISTDAHSLNSAAQ [K481S],-0.00188
